Holding throughout (assay): SPR
For experiment [1], the target named is Human haptoglobin (from pooled human plasma, a mixture of 1-1, 2-1, and 2-2 phenotype) (human) (UniProt P00738).
Experiment [2] deals with T1, Recombinant human CD163 protein (human, UniProt Q86VB7-1 42-1050).
The target of experiment [3] is T1, Recombinant human CD163 protein. The source holds these as a separate data set.

Where two headings read alike, the source gives them in different places. Some results are limits rather than exact numbers.

From PMC4902170 (JCI insight, 2016) come the findings set out here.

Usually Kd stands for the concentration at which binding is half-saturated.

T1 sequence (Q86VB7 42-1050): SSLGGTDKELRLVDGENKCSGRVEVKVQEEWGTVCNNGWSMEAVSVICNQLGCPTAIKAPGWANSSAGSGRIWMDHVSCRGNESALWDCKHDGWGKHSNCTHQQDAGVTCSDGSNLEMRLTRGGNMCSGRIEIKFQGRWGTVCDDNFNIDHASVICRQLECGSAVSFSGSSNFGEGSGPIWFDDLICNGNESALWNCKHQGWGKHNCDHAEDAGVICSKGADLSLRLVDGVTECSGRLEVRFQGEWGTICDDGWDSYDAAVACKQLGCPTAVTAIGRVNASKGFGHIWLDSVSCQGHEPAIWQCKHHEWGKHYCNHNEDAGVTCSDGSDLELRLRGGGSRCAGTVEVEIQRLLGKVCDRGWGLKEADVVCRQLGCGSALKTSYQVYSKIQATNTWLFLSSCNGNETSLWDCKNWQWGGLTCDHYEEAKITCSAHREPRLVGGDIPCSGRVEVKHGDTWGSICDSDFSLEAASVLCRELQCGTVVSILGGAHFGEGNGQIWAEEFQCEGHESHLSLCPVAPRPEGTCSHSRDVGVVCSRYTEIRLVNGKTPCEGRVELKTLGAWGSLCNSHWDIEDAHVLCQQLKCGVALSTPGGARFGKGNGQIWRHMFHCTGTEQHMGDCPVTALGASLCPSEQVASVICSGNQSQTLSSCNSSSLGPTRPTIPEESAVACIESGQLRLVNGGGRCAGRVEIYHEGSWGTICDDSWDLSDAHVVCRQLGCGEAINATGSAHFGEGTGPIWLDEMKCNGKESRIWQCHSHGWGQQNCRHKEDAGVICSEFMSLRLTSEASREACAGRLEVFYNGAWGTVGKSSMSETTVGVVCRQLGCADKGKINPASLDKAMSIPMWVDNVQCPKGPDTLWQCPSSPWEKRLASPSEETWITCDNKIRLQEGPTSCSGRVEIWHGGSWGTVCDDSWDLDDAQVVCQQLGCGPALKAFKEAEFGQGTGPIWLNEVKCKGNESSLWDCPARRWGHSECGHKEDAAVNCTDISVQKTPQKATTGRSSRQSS

On to “Recombinant HMGB1 (redox form not stated for the experiment) (from UniProt P09429 1-215) (natural protein)”, for which the Kd in experiment [1] was 64 nM.

B1: HMGB1 and haptoglobin complexes (1:1 molar ratio) (complex)
chain 1: GKGDPKKPRGKMSSYAFFVQTCREEHKKKHPDASVNFSEFSKKCSERWKTMSAKEKGKFEDMAKADKARYEREMKTYIPPKGETKKKFKDPNAPKRPPSAFFLFCSEYRPKIKGEHPGLSIGDVAKKLGEMWNNTAADDKQPYEKKAAKLKEKYEKDIAAYRAKGKPDAAKKGVVKAEKSKKKKEEEDDEEDEEDEEEEEEEEDEDEEEDDDDE
chain 2: VDSGNDVTDIADDGCPKPPEIAHGYVEHSVRYQCKNYYKLRTEGDGVYTLNDKKQWINKAVGDKLPECEADDGCPKPPEIAHGYVEHSVRYQCKNYYKLRTEGDGVYTLNNEKQWINKAVGDKLPECEAVCGKPKNPANPVQ
chain 3: ILGGHLDAKGSFPWQAKMVSHHNLTTGATLINEQWLLTTAKNLFLNHSENATAKDIAPTLTLYVGKKQLVEIEKVVLHPNYSQVDIGLIKLKQKVSVNERVMPICLPSKDYAEVGRVGYVSGWGRNANFKFTDHLKYVMLPVADQDQCIRHYEGSTVPEKKTPKSPVGVQPILNEHTFCAGMSKYQEDTCYGDAGSAFAVHDLEEDTWYATGILSFDKSCAVAEYGVYVKVTSIQDWVQKTIAEN
Turning to B1, the dissociation constant Kd in experiment [2] came out at 130 nM.

B2: Recombinant HMGB1 (redox form not stated for the experiment) (natural protein, human, UniProt P09429 1-215, looked up)
chain: MGKGDPKKPRGKMSSYAFFVQTCREEHKKKHPDASVNFSEFSKKCSERWKTMSAKEKGKFEDMAKADKARYEREMKTYIPPKGETKKKFKDPNAPKRPPSAFFLFCSEYRPKIKGEHPGLSIGDVAKKLGEMWNNTAADDKQPYEKKAAKLKEKYEKDIAAYRAKGKPDAAKKGVVKAEKSKKKKEEEEDEEDEEDEEEEEDEEDEDEEEDDDDE
As for B2, the Kd in experiment [3] was over 1000 nM.
